This is an account of results in the supplement of paper PMC10567573.

The labels stand for the following.
B1: C22orf15 (parent)
chain: ITQSWQVSVRVQPRGRAHLLPNPY
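Further: lentivirally expressed fusions sorted by FACS into six bins by GFP to DsRed ratio, PSI derived from sequencing read proportions per bin multiplied by bin number.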

Variants of B1 are the subject of the series. Kind of series: protein stability index of a GFP-peptide fusion (GPS, HEK-293T) (PSI 1-6); higher = more stable. As to conditions: c terminus: a fixed tail appended.
As for ITQSWQVSVRVQPRGRAHLLPLPY [N22L], the protein stability index was 3.15.
As for ITQSWQVSVRVQPRGRAHLLPYPY [N22Y], the figure is 2.09.
To ITQSWQVSVRVQPRGRAHLLPKPY [N22K] belongs 2.17; to ITQSWQVSVRVQPRGRAHLLPMPY [N22M], 1.88; to ITQSWQVSVRVQPRGRAHLLPFPY [N22F], 1.49.
As for ITQSWQVSVRVQPRGRAHLLPTPY [N22T], the figure is 1.89; as for ITQSWQVSVRVQPRGRAHLLPDPY [N22D], 1.62.
As for ITQSWQVSVRVQPRGRAHLLPEPY [N22E], the protein stability index was 1.59.
Take ITQSWQVSVRVQPRGRAHLLPHPY [N22H]: the protein stability index amounted to 1.75.
As for ITQSWQVSVRVQPRGRAHLLPSPY [N22S], the figure is 4.3; as for ITQSWQVSVRVQPRGRAHLLPRPY [N22R], 2.33; as for ITQSWQVSVRVQPRGRAHLLPAPY [N22A], 2.85.
As for ITQSWQVSVRVQPRGRAHLLPPPY [N22P], the figure is 1.17; as for ITQSWQVSVRVQPRGRAHLLPIPY [N22I], 2.39; as for ITQSWQVSVRVQPRGRAHLLPQPY [N22Q], 2.43.
As for ITQSWQVSVRVQPRGRAHLLPVPY [N22V], the figure is 1.75; as for ITQSWQVSVRVQPRGRYHLLPNPY [A17Y], 3.21; as for ITQSWQVSVRVQPRGRGHLLPNPY [A17G], 3.81.
As to ITQSWQVSVRVQPRGRDHLLPNPY [A17D], the protein stability index was 1.76.
Take ITQSWQVSVRVQPRGRIHLLPNPY [A17I]: the protein stability index turned out to be 2.96.
Take ITQSWQVSVRVQPRGRVHLLPNPY [A17V]: the protein stability index was 2.58.
On to ITQSWQVSVRVQPRGRWHLLPNPY [A17W], for which the protein stability index was 2.46.
ITQSWQVSVRVQPRGRPHLLPNPY [A17P]: the protein stability index turned out to be 1.81.
As for ITQSWQVSVRVQPRGRMHLLPNPY [A17M], the figure is 2.57; as for ITQSWQVSVRVQPRGRQHLLPNPY [A17Q], 1.68; as for ITQSWQVSVRVQPRGRCHLLPNPY [A17C], 3.18.
For ITQSWQVSVRVQPRGRSHLLPNPY [A17S], the protein stability index is 2.46.
As for ITQSWQVSVRVQPRGRRHLLPNPY [A17R], the figure is 1.66.
As to ITQSWQVSVRVQPRGRHHLLPNPY [A17H], the protein stability index stood at 3.03.
As to ITQSWQVSVRVQPRGRTHLLPNPY [A17T], the protein stability index came out at 2.28.
To ITQSWQVSVRVQPRGRFHLLPNPY [A17F] belongs 1.1; to ITQSWQVSVRVQPRGRKHLLPNPY [A17K], 1.34; to ITQSWQVSVRVQPRGRNHLLPNPY [A17N], 1.7.
To ITQSWQVSVRVQPRGRLHLLPNPY [A17L] belongs 2.42; to ITQSWQVSVRVQRRGRAHLLPNPY [P13R], 1.16; to ITQSWQVSVRVQTRGRAHLLPNPY [P13T], 1.94.
To ITQSWQVSVRVQYRGRAHLLPNPY [P13Y] belongs 2.01.
Take ITQSWQVSVRVQVRGRAHLLPNPY [P13V]: the protein stability index was 3.02.
To ITQSWQVSVRVQSRGRAHLLPNPY [P13S] belongs 2.67.
To ITQSWQVSVRVQPRWRAHLLPNPY [G15W] belongs 4.12.
As for ITQSWQVSVRVQPRCRAHLLPNPY [G15C], the figure is 1.97; as for ITQSWQVSVRVQPRDRAHLLPNPY [G15D], 1.94.
In the case of ITQSWQVSVRVQPRQRAHLLPNPY [G15Q], the protein stability index was 1.48.
ITQSWQVSVRVQPRTRAHLLPNPY [G15T]: the protein stability index is 1.51.
On to ITQSWQVSVRVQPRERAHLLPNPY [G15E], for which the protein stability index was determined as 2.02.
For ITQSWQVSVRVQPRHRAHLLPNPY [G15H], the protein stability index was 2.03.
Consider ITQSWQVSVRVQPRKRAHLLPNPY [G15K], for which the protein stability index came out at 2.31.
As for ITQSWQVSVRVQPRPRAHLLPNPY [G15P], the figure is 3.81; as for ITQSWQVSVRVQPRFRAHLLPNPY [G15F], 1.97.
Regarding ITQSWQVSVRVQPRNRAHLLPNPY [G15N], the protein stability index came out at 3.33.
For the variant ITQSWQVSVRVQPRARAHLLPNPY [G15A], the protein stability index worked out at 4.31.
Regarding ITQSWQVSVRVQPRVRAHLLPNPY [G15V], the protein stability index worked out at 2.31.
As for ITQSWQVSVRVQPRYRAHLLPNPY [G15Y], the protein stability index was 1.77.
With ITQSWQVSVRVQPRRRAHLLPNPY [G15R], the protein stability index turned out to be 1.73.
As for ITQSWQVSVRVQPRGRAHLLINPY [P21I], the figure is 1.91.
Take ITQSWQVSVRVQPRGRAHLLENPY [P21E]: the protein stability index was 1.6.
With ITQSWQVSVRVQPRGRAHLLVNPY [P21V], the protein stability index was found to be 1.94.
To ITQSWQVSVRVQPRGRAHLLNNPY [P21N] belongs 1.68; to ITQSWQVSVRVQPRGRAHLLDNPY [P21D], 1.56.
To ITQSWQVSVRVQPRGRAHLLYNPY [P21Y] belongs 2.38; to ITQSWQVSVRVQPRGRAHLLCNPY [P21C], 3.18; to ITQSWQVSVRVQPRGRAHLLTNPY [P21T], 2.87.
To ITQSWQVSVRVQPRGRAHLLRNPY [P21R] belongs 1.79; to ITQSWQVSVRVQPRGRAHLLGNPY [P21G], 1.76; to ITQSWQVSVRVQPRGRAHLLLNPY [P21L], 2.04.
As for ITQSWQVSVRVQPRGRAHLLANPY [P21A], the protein stability index is 1.29.
As to ITQSWQVSVRVQPRGRAHLLHNPY [P21H], the protein stability index was found to be 2.78.
To ITQSWQVSVRVQPRGRAHLLKNPY [P21K] belongs 1.64; to ITQSWQVSVRVQPRGRAHLLSNPY [P21S], 1.7; to ITQSWQVSVRVQPRGRAHLLQNPY [P21Q], 1.52.
To ITQSWQVSVRVQPRGRAHLTPNPY [L20T] belongs 3.22; to ITQSWQVSVRVQPRGRAHLKPNPY [L20K], 1.01.
As for ITQSWQVSVRVQPRGRAHLYPNPY [L20Y], the protein stability index turned out to be 3.07.
As for ITQSWQVSVRVQPRGRAHLRPNPY [L20R], the figure is 1.7; as for ITQSWQVSVRVQPRGRAHLIPNPY [L20I], 2.29; as for ITQSWQVSVRVQPRGRAHLHPNPY [L20H], 1.51.
As for ITQSWQVSVRVQPRGRAHLSPNPY [L20S], the figure is 1.03; as for ITQSWQVSVRVQPRGRAHLNPNPY [L20N], 2.16.
To ITQSWQVSVRVQPRGRAHLAPNPY [L20A] belongs 1.91; to ITQSWQVSVRVQPRGRAHLVPNPY [L20V], 4.25.
Regarding ITQSWQVSVRVQPRGRAHLPPNPY [L20P], the protein stability index is 1.17.
With ITQSWQVSVRVQPRGRAHLCPNPY [L20C], the protein stability index amounted to 1.97.
To ITQSWQVSVRVQPRGRAHELPNPY [L19E] belongs 3.62; to ITQSWQVSVRVQPRGRAHALPNPY [L19A], 2.42; to ITQSWQVSVRVQPRGRAHDLPNPY [L19D], 1.82.
ITQSWQVSVRVQPRGRAHTLPNPY [L19T]: the protein stability index came to 2.62.
Consider ITQSWQVSVRVQPRGRAHGLPNPY [L19G], for which the protein stability index amounted to 2.23.
Turning to ITQSWQVSVRVQPRGRAHQLPNPY [L19Q], the protein stability index is 1.93.
For ITQSWQVSVRVQPRGRAHNLPNPY [L19N], the protein stability index was determined as 1.49.
To ITQSWQVSVRVQPRGRAHSLPNPY [L19S] belongs 2.1.
With ITQSWQVSVRVQPRGRAHMLPNPY [L19M], the protein stability index turned out to be 3.54.
For the variant ITQSWQVSVRVQPRGRAHILPNPY [L19I], the protein stability index amounted to 2.81.
To ITQSWQVSVRVQPRGRAHRLPNPY [L19R] belongs 2.43.
With ITQSWQVSVRVQPRGRAHPLPNPY [L19P], the protein stability index came to 1.78.
